Experimental data reported in publication PMC8605242, “Multiple variants of the human presequence translocase motor subunit Magmas govern the mitochondrial import” (The Journal of Biological Chemistry, 2021).

T1: GST-Magmas (human, UniProt Q9Y3D7 1-125)
T1 construct: Magmas, human, full length; vector pGEX-KG; also called GST tagged Magmas; source: E. coli (C41), purified
T1 sequence (looked up): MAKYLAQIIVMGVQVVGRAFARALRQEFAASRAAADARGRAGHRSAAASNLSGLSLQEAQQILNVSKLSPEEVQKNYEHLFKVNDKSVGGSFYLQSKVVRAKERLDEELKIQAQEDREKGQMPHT

T2: GST-Magmas-1 (human, UniProt I3L3T0 1-145)
T2 construct: Magmas-1, human variant of Magmas with a unique N-terminal extension, full length; UniProt entry I3L3T0; vector pGEX-KG; also called GST tagged Magmas-1; source: E. coli (C41), purified
T2 sequence (looked up): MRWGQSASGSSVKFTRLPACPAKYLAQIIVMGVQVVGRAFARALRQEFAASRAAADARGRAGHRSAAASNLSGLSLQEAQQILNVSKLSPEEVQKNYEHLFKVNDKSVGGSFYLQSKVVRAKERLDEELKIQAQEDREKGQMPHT

B1: DnaJC15J+T (domain or fragment)
chain: not shown
notes: DnaJC15, human J-protein, N-terminal truncation with the J-domain and predicted MTS (J + T), amino acids 69-146; also called hexahistidine tagged DnaJC15J+T
B2: hexahistidine tagged Magmas-2 (natural protein, human, UniProt I3L1U7 1-129, looked up)
chain: MAKYLAQIIVMGVQVVGRAFARALRQEFAASRAAADARGRAGHRSAAASNLSGLSLQEAQQILNVSKLSPEEVQKNYEHLFKVNDKSVGGSFYLQSKRSGLSMLPKLISNSWPQAILLPWPPKTLGLHA
B3: DnaJC19J+T (domain or fragment)
chain: not shown
notes: DnaJC19, human J-protein, N-terminal truncation with the J-domain and predicted MTS (J + T), amino acids 34-112; also called hexahistidine tagged DnaJC19J+T

Key:
GST-Magmas = target: T1, GST-Magmas; experiment: pull-down; 1 μM GST alone or GST-Magmas variants held on beads, increasing concentrations of DnaJC19J+T or DnaJC15J+T, 45 min, 24 °C; 50 mM Tris-HCl pH 7.5, 100 mM KCl, 0.2% Triton-X 100, 10% glycerol, 1 mM PMSF; blocked with 0.1% BSA; SDS-PAGE, Coomassie, densitometry; conditions: both partners purified
DnaJC15J+T = target: B1; experiment: cell-based or functional assay
DnaJC19J+T = target: B3; experiment: cell-based or functional assay
GST-Magmas-1 = target: T2, GST-Magmas-1; experiment: pull-down; 1 μM GST alone or GST-Magmas variants held on beads, increasing concentrations of DnaJC19J+T or DnaJC15J+T, 45 min, 24 °C; 50 mM Tris-HCl pH 7.5, 100 mM KCl, 0.2% Triton-X 100, 10% glycerol, 1 mM PMSF; blocked with 0.1% BSA; SDS-PAGE, Coomassie, densitometry; conditions: both partners purified

Sequence of DnaJC19J+T (Q96DA6 34-112): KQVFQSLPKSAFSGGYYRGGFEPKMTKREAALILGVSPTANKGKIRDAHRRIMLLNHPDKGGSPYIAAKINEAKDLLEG
Sequence of DnaJC15J+T (Q9Y5T4 69-146): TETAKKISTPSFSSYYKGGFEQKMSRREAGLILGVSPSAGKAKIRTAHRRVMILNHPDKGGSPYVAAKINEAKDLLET

Binder	binding result (GST-Magmas)	inhibition of the DnaJC15J+T-stimulated ATP hydrolysis of mortalin, single turnover assay, Mortalin-ATP : J-protein : Magmas variant 1:2:4 (DnaJC15J+T) [%]	inhibition of the DnaJC19J+T-stimulated ATP hydrolysis of mortalin, single turnover assay, Mortalin-ATP : J-protein : Magmas variant 1:2:4 (DnaJC19J+T) [%]	binding result (GST-Magmas-1)
B1	binds	–	–	–
B2	–	> 90	> 90	–
B3	binds	–	–	binds
